Measurements published in publication PMC10881741, “Structural modifications toward improved lead-203/lead-212 peptide-based image-guided alpha-particle radiopharmaceutical therapies for neuroendocrine tumors” (European Journal of Nuclear Medicine and Molecular Imaging, 2023).
Read-outs that look alike come from different tables or passages of the source.

Columns and labels:
[1] = In vivo biodistribution of ^203Pb-labeled peptides; design: species or system mice; conditions: female, athymic nu/nu, mouse, total radioactivity; for tissue uptake at 3 h / tissue uptake at 24 h / tissue uptake at 1 h / tissue uptake at 6 h: intravenous; for tissue to tissue ratio at 1 h / tissue to tissue ratio at 3 h / tissue to tissue ratio at 24 h: iv
Protocol: AR42J cells (5.0 × 10^6 cells/animal) were implanted subcutaneously on the left shoulder of female athymic nu/nu mice. […] Extra groups of mice were co-administered 37 kBq of ^203Pb-PSC-PEG2-TOC with DL-lysine (400 mg/kg) to determine the effect of amino acid on renal uptake of the radiopharmaceutical. Mice (n=3 per time point) were euthanized at 1, 3, and 24 h post-administration, and tumors and organs/tissues of interest were excised and weighed. The radioactivities of the samples were measured using the gamma counter.

AR42J xenografts = experiment: SPECT/CT imaging with blocking by unlabeled peptide; assay type: in vivo, mice; conditions: 11.1 MBq, 30 nmol unlabeled PSC-PEG2-TOC
Protocol: Serial SPECT/CT imaging was conducted at 3 h and 24 h post-administration. The imaging study was performed at the University of Iowa Small Animal Imaging Core using an INVEON trimodality SPECT/positron emission tomography (PET)/CT scanner (Siemens Preclinical, Knoxville, TN) equipped with medium-energy (0.3 mm) pinhole collimators. Data were reconstructed using three-dimensional ordered-subsets expectation maximization (OSEM-3D) algorithm with eight iterations and six subsets. Post-reconstruction images were smoothed with a 3D Gaussian kernel. Post-imaging biodistribution of the radiotracer in mice was obtained at 30 h post-administration.

For `C[C@@H](O)[C@@H]1NC(=O)[C@H](CCCCN)NC(=O)[C@@H](Cc2c[nH]c3ccccc23)NC(=O)[C@H](Cc2ccc(O)cc2)NC(=O)[C@@H](NC(=O)[C@@H](Cc2ccccc2)NC(=O)CCOCCOCCNC(=O)CN2CCN(CC(=O)O)CCN(CC(N)=O)CCN(CC(=O)O)CC2)CSSC[C@@H](C(=O)N[C@H](CO)[C@@H](C)O)NC1=O` [[^203Pb]Pb-PSC-PEG2-TOC, metal not drawn], the tissue uptake at 3 h ([1]; lung, 37 kBq, 3 h (No Lys), Table S4 study, read-out: Lung) was 4.61 ± 3.75 %ID/g, the tissue uptake at 3 h ([1]; lung, 37 kBq, 3 h post-administration, read-out: Lung) was 0.38 ± 0.07 %ID/g and the tissue uptake at 24 h ([1]; lung, 37 kBq, 24 h post-administration, read-out: Lung) was 1.46 ± 0.4 %ID/g. It also gave a tissue uptake at 1 h ([1]; lung, 1 h, DL-lysine co-administered, read-out: Lung) of 4.48 ± 4.47 %ID/g, a tissue uptake at 3 h ([1]; lung, 3 h (Blocking): 10 nmol unlabeled PSC-PEG2-TOC co-administered, read-out: Lung) of 0.26 ± 0.03 %ID/g and a tissue uptake at 3 h ([1]; lung, 3 h, DL-lysine co-administered, read-out: Lung) of 4.76 ± 3.19 %ID/g. For the same compound, the tissue uptake at 6 h ([1]; lung, DL-lysine co-administered, read-out: Lung) was 5.6 ± 1.27 %ID/g, the tissue uptake at 24 h ([1]; lung, 24 h, DL-lysine co-administered, read-out: Lung) was 1.11 ± 0.74 %ID/g and the tissue uptake at 1 h ([1]; muscle, 37 kBq, 1 h post-administration, read-out: Muscle) was 0.29 ± 0.27 %ID/g. The tissue uptake at 3 h ([1]; muscle, 37 kBq, 3 h (No Lys), Table S4 study, read-out: Muscle) was 0.17 ± 0.1 %ID/g, the tissue uptake at 3 h ([1]; muscle, 37 kBq, 3 h post-administration, read-out: Muscle) was 0.03 ± 0.01 %ID/g and the tissue uptake at 24 h ([1]; muscle, 37 kBq, 24 h post-administration, read-out: Muscle) was 0.02 ± 0.01 %ID/g. For the same compound, the tissue uptake at 1 h ([1]; muscle, 1 h, DL-lysine co-administered, read-out: Muscle) was 0.48 ± 0.26 %ID/g, the tissue uptake at 3 h ([1]; muscle, 3 h (Blocking): 10 nmol unlabeled PSC-PEG2-TOC co-administered, read-out: Muscle) was 0.06 ± 0.03 %ID/g and the tissue uptake at 3 h ([1]; muscle, 3 h, DL-lysine co-administered, read-out: Muscle) was 0.03 ± 0.01 %ID/g. The tissue uptake at 6 h ([1]; muscle, DL-lysine co-administered, read-out: Muscle) was 0.02 ± 0.02 %ID/g, the tissue uptake at 24 h ([1]; muscle, 24 h, DL-lysine co-administered, read-out: Muscle) was 0.01 ± 0.01 %ID/g and the tissue uptake at 3 h ([1]; pancreas, 37 kBq, 3 h (No Lys), Table S4 study, read-out: Pancreas) was 2.29 ± 1.63 %ID/g. The tissue uptake at 1 h ([1]; pancreas, 1 h, DL-lysine co-administered, read-out: Pancreas) was 5.04 ± 1.33 %ID/g, the tissue uptake at 3 h ([1]; pancreas, 3 h (Blocking): 10 nmol unlabeled PSC-PEG2-TOC co-administered, read-out: Pancreas) was 0.22 ± 0.04 %ID/g and the tissue uptake at 3 h ([1]; pancreas, 3 h, DL-lysine co-administered, read-out: Pancreas) was 2.1 ± 0.68 %ID/g. It also gave a tissue uptake at 6 h ([1]; pancreas, DL-lysine co-administered, read-out: Pancreas) of 0.75 ± 0.16 %ID/g, a tissue uptake at 24 h ([1]; pancreas, 24 h, DL-lysine co-administered, read-out: Pancreas) of 0.33 ± 0.08 %ID/g and a tissue uptake at 1 h ([1]; small intestine, 37 kBq, 1 h post-administration, read-out: Small intestine) of 1.34 ± 0.35 %ID/g. It also gave a tissue uptake at 3 h ([1]; small intestine, 37 kBq, 3 h (No Lys), Table S4 study, read-out: Small intestine) of 0.6 ± 0.11 %ID/g, a tissue uptake at 3 h ([1]; small intestine, 37 kBq, 3 h post-administration, read-out: Small intestine) of 1.85 ± 0.22 %ID/g and a tissue uptake at 24 h ([1]; small intestine, 37 kBq, 24 h post-administration, read-out: Small intestine) of 0.17 ± 0.01 %ID/g. The tissue uptake at 1 h ([1]; small intestine, 1 h, DL-lysine co-administered, read-out: Small intestine) was 1.9 ± 0.74 %ID/g, the tissue uptake at 3 h ([1]; small intestine, 3 h (Blocking): 10 nmol unlabeled PSC-PEG2-TOC co-administered, read-out: Small intestine) was 0.81 ± 0.71 %ID/g and the tissue uptake at 3 h ([1]; small intestine, 3 h, DL-lysine co-administered, read-out: Small intestine) was 2.37 ± 0.78 %ID/g. The tissue uptake at 6 h ([1]; small intestine, DL-lysine co-administered, read-out: Small intestine) was 0.94 ± 0.32 %ID/g, the tissue uptake at 24 h ([1]; small intestine, 24 h, DL-lysine co-administered, read-out: Small intestine) was 0.15 ± 0.02 %ID/g and the tissue uptake at 1 h ([1]; spleen, 37 kBq, 1 h post-administration, read-out: Spleen) was 1.21 ± 0.17 %ID/g. It also gave a tissue uptake at 3 h ([1]; spleen, 37 kBq, 3 h (No Lys), Table S4 study, read-out: Spleen) of 0.97 ± 0.47 %ID/g, a tissue uptake at 3 h ([1]; spleen, 37 kBq, 3 h post-administration, read-out: Spleen) of 0.54 ± 0.29 %ID/g and a tissue uptake at 24 h ([1]; spleen, 37 kBq, 24 h post-administration, read-out: Spleen) of 0.28 ± 0.07 %ID/g. It also gave a tissue uptake at 1 h ([1]; spleen, 1 h, DL-lysine co-administered, read-out: Spleen) of 1.04 ± 0.4 %ID/g, a tissue uptake at 3 h ([1]; spleen, 3 h (Blocking): 10 nmol unlabeled PSC-PEG2-TOC co-administered, read-out: Spleen) of 0.14 ± 0.07 %ID/g and a tissue uptake at 3 h ([1]; spleen, 3 h, DL-lysine co-administered, read-out: Spleen) of 0.81 ± 0.3 %ID/g. It also gave a tissue uptake at 6 h ([1]; spleen, DL-lysine co-administered, read-out: Spleen) of 0.73 ± 0.17 %ID/g, a tissue uptake at 24 h ([1]; spleen, 24 h, DL-lysine co-administered, read-out: Spleen) of 0.41 ± 0.28 %ID/g and a tissue uptake at 3 h ([1]; stomach, 37 kBq, 3 h (No Lys), Table S4 study, read-out: Stomach) of 0.95 ± 0.13 %ID/g. It also gave a tissue uptake at 1 h ([1]; stomach, 1 h, DL-lysine co-administered, read-out: Stomach) of 1.46 ± 0.32 %ID/g, a tissue uptake at 3 h ([1]; stomach, 3 h (Blocking): 10 nmol unlabeled PSC-PEG2-TOC co-administered, read-out: Stomach) of 0.36 ± 0.15 %ID/g and a tissue uptake at 3 h ([1]; stomach, 3 h, DL-lysine co-administered, read-out: Stomach) of 2.36 ± 0.44 %ID/g. The tissue uptake at 6 h ([1]; stomach, DL-lysine co-administered, read-out: Stomach) was 0.78 ± 0.2 %ID/g, the tissue uptake at 24 h ([1]; stomach, 24 h, DL-lysine co-administered, read-out: Stomach) was 0.3 ± 0.12 %ID/g and the tissue uptake at 1 h ([1]; tumor, 37 kBq, 1 h post-administration, read-out: Tumor) was 28.2 ± 8.63 %ID/g. It also gave a tissue uptake at 3 h ([1]; tumor, 37 kBq, 3 h (No Lys), Table S4 study, read-out: Tumor) of 19.8 ± 1.61 %ID/g, a tissue uptake at 3 h ([1]; tumor, 37 kBq, 3 h post-administration, read-out: Tumor) of 22.8 ± 2.8 %ID/g and a tissue uptake at 24 h ([1]; tumor, 37 kBq, 24 h post-administration, read-out: Tumor) of 12.2 ± 3.81 %ID/g. The tissue uptake at 1 h ([1]; tumor, 1 h, DL-lysine co-administered, read-out: Tumor) was 24.4 ± 1.85 %ID/g, the tissue uptake at 3 h ([1]; tumor, 3 h (Blocking): 10 nmol unlabeled PSC-PEG2-TOC co-administered, read-out: Tumor) was 2.41 ± 0.46 %ID/g and the tissue uptake at 3 h ([1]; tumor, 3 h, DL-lysine co-administered, read-out: Tumor) was 22.9 ± 1.09 %ID/g. It also gave a tissue uptake at 6 h ([1]; tumor, DL-lysine co-administered, read-out: Tumor) of 18.9 ± 1.86 %ID/g, a tissue uptake at 24 h ([1]; tumor, 24 h, DL-lysine co-administered, read-out: Tumor) of 7.44 ± 0.41 %ID/g and a tissue to tissue ratio at 1 h ([1]; tumor/blood, 37 kBq, 1 h post-administration, read-out: Tumor/blood ratio) of 78.3. The tissue to tissue ratio at 3 h ([1]; tumor/blood, 37 kBq, 3 h post-administration, read-out: Tumor/blood ratio) was 456, the tissue to tissue ratio at 24 h ([1]; tumor/blood, 37 kBq, 24 h post-administration, read-out: Tumor/blood ratio) was 610 and the tissue to tissue ratio at 1 h ([1]; tumor/kidneys, 37 kBq, 1 h post-administration, read-out: Tumor/kidneys ratio) was 1.37. For the same compound, the tissue to tissue ratio at 3 h ([1]; tumor/kidneys, 37 kBq, 3 h post-administration, read-out: Tumor/kidneys ratio) was 1.44, the tissue to tissue ratio at 24 h ([1]; tumor/kidneys, 37 kBq, 24 h post-administration, read-out: Tumor/kidneys ratio) was 8.36 and the tissue to tissue ratio at 1 h ([1]; tumor/liver, 37 kBq, 1 h post-administration, read-out: Tumor/liver ratio) was 78.3. The tissue to tissue ratio at 3 h ([1]; tumor/liver, 37 kBq, 3 h post-administration, read-out: Tumor/liver ratio) was 99.1, the tissue to tissue ratio at 24 h ([1]; tumor/liver, 37 kBq, 24 h post-administration, read-out: Tumor/liver ratio) was 153 and the tissue to tissue ratio at 1 h ([1]; tumor/lung, 37 kBq, 1 h post-administration, read-out: Tumor/lung ratio) was 7.87. The tissue to tissue ratio at 3 h ([1]; tumor/lung, 37 kBq, 3 h post-administration, read-out: Tumor/lung ratio) was 60, the tissue to tissue ratio at 24 h ([1]; tumor/lung, 37 kBq, 24 h post-administration, read-out: Tumor/lung ratio) was 8.36 and the tissue to tissue ratio at 1 h ([1]; tumor/muscle, 37 kBq, 1 h post-administration, read-out: Tumor/muscle ratio) was 97.2. The tissue to tissue ratio at 3 h ([1]; tumor/muscle, 37 kBq, 3 h post-administration, read-out: Tumor/muscle ratio) was 760, the tissue to tissue ratio at 24 h ([1]; tumor/muscle, 37 kBq, 24 h post-administration, read-out: Tumor/muscle ratio) was 610 and the “Tumor uptake with co-administration of excessive unlabeled peptide” value (AR42J xenografts) was “almost completely blocked”.
